B1: 12(150) (ssDNA)
DNA: CCTGGACGGAACCAGAATACTTTTGGTCTCCAGG
modifications: 2'-OMe C7,G9,A14,G15,A19,C20,A32,G33,G34; P-isopropoxy between C12 and C13; 5' idT, 3' idT
B2: 12(151) (ssDNA)
DNA: B1 DNA
modifications: 2'-OMe C7,G9,A14,G15,A19,C20,A32,G33,G34; P-propoxy between C12 and C13; 5' idT, 3' idT
B3: SEQ 8 aptamer (ssDNA)
DNA: GTGGTCTAGCTGTACTCCGAAAGCCGGAACCGTGCCAATGGTCGCTACTTCAGCTCCCCACAGTCAACGAGCTA
B4: 12(149) (ssDNA)
DNA: B1 DNA
modifications: 2'-OMe C7,G9,A14,G15,A19,C20,A32,G33,G34; P-methyl G5,G8,C12,A16,T21,T23,C28,C30,C31,G34; 5' idT, 3' idT
B5: 12(53) (ssDNA)
DNA: B1 DNA
modifications: 2'-OMe C7,G9,A14,G15,A19,C20,A32,G33,G34; 5' 80 kDa PEG (GL4-800TS) via ssH linker; 3' idT
B6: 12(57) (ssDNA)
DNA: B1 DNA
modifications: 2'-OMe C7,G9,A14,G15,A19,C20,A32,G33,G34; 5' 40 kDa PEG (GL2-400GS2) via ssH linker; 3' C12 spacer
B7: 12(52) (ssDNA)
DNA: B1 DNA
modifications: 2'-OMe C7,G9,A14,G15,A19,C20,A32,G33,G34; 5' 80 kDa PEG (GL4-800GS2) via ssH linker; 3' idT
B8: 12(51) (ssDNA)
DNA: B1 DNA
modifications: 2'-OMe C7,G9,A14,G15,A19,C20,A32,G33,G34; 5' 80 kDa PEG (GL2-800TS) via ssH linker; 3' idT
B9: 12(56) (ssDNA)
DNA: B1 DNA
modifications: 2'-OMe C7,G9,A14,G15,A19,C20,A32,G33,G34; 5' 40 kDa PEG (GL2-400GS2) via ssH linker; 3' C6 spacer
B10: 12(134) (ssDNA)
DNA: B1 DNA
modifications: 2'-OMe C7,G9,A14,G15,A19,C20,A32,G33,G34; P-methyl C1,G5,G8,C12,A16,T21,T23,C28,C30,C31; 5' 40 kDa PEG (GL2-400GS2) via ssH linker; 3' idT
B11: 12(142) (ssDNA)
DNA: B1 DNA
modifications: 2'-OMe C7,G9,A14,G15,A19,C20,A32,G33,G34; P-methyl C1,G5,G8,G9,C12,A16,T21,T23,C28,C30,C31; idT 5' and 3'
B12: 12(136) (ssDNA)
DNA: B1 DNA
modifications: 2'-OMe C7,G9,A14,G15,A19,C20,A32,G33,G34; P-methyl C1,G5,G8,C12,A16,T21,T23,C28,C30,C31,G33; idT 5' and 3'
B13: 12(138) (ssDNA)
DNA: B1 DNA
modifications: 2'-OMe C7,G9,A14,G15,A19,C20,A32,G33,G34; P-methyl C1,G5,G8,C12,A16,C20,T21,T23,C28,C30,C31; idT 5' and 3'
B14: 12(146) (ssDNA)
DNA: B1 DNA
modifications: 2'-OMe C7,G9,A14,G15,A19,C20,A32,G33,G34; P-methyl C1,G5,G8,C12,A14,A16,T21,T23,C28,C30,C31; 5' 40 kDa PEG (GL2-400GS2) via ssH linker; 3' idT
B15: 12(140) (ssDNA)
DNA: B1 DNA
modifications: 2'-OMe C7,G9,A14,G15,A19,C20,A32,G33,G34; P-methyl C1,G5,G8,C12,G15,A16,T21,T23,C28,C30,C31; idT 5' and 3'
B16: 12(137) (ssDNA)
DNA: B1 DNA
modifications: 2'-OMe C7,G9,A14,G15,A19,C20,A32,G33,G34; P-methyl C1,G5,G8,C12,A16,T21,T23,C28,C30,C31,A32; idT 5' and 3'

Usually IC50 stands for the point on the concentration scale where inhibition reaches its midpoint. Higher therefore signals a need for much substance.

One data set concerns the target T1, autotaxin (ENPP2/NPP2) (Homo sapiens, UniProt Q13822 Q13822:36-863). The experiment in a line: inhibition; NPP2 assay per text (column headed LysoPLD).
On to B1, for which the concentration for half-maximal inhibition (IC50) worked out at 0.17 nM.

B2 had an IC50 of 0.32 nM.

The target of the next data set is T1, autotaxin (ENPP2/NPP2). The experiment in a line: inhibition; NPP2 assay, 1 mM pNP-TMP, 0.3 nM autotaxin, 37 C.
Consider B3, for which the IC50 came out at 10 nM.

The target of the next data set is T1, autotaxin (ENPP2/NPP2). The experiment in a line: inhibition; LysoPLD assay, 2 mM 14:0 LPC, 2.1 nM autotaxin, 37 C.
Consider B4, for which 6.1 nM corresponded to half-maximal inhibition (IC50).

For the next data set, the target named is T1, autotaxin (ENPP2/NPP2). The experiment in a line: inhibition; LPA production, 1.0 uM aptamer, ~92% serum, 37C 3 h.
CCTGGACGGAACCAGAATACTTTTGGTCTCCAGG (ssDNA, 2'-OMe C1,G5,C7,G9,C12,A14,G15,A19,C20,A32,G33,G34; idT 5' and 3') [12(43)] registered an activity of 85 % inhibition.

Turning to CCTGGACGGAACCAGAATACTTTTGGTCTCCAGG (ssDNA, 2'-OMe C1,C7,G9,C12,A14,G15,A19,C20,A32,G33,G34; idT 5' and 3') [12(45)], the activity was determined as 86 % inhibition.

In turn, CCTGGACGGAACCAGAATACTTTTGGTCTCCAGG (ssDNA, 2'-OMe C1,G5,C7,G9,C13,A14,G15,A19,C20,A32,G33,G34; idT 5' and 3') [12(44)] showed an activity of 87 % inhibition.

For the molecule CCTGGACGGAACCAGAATACTTTTGGTCTCCAGG (ssDNA, 2'-OMe C1,C7,G9,C13,A14,G15,A19,C20,A32,G33,G34; idT 5' and 3') [12(46)], the activity worked out at 83 % inhibition.

As to CCTGGACGGAACCAGAATACTTTTGGTCTCCAGG (ssDNA, 2'-OMe C1,G5,C7,G9,C12,C13,A14,G15,A19,C20,C30,A32,G33,G34; idT 5' and 3') [12(47)], the activity was found to be 57 % inhibition.

The next data set concerns the target T1, autotaxin (ENPP2/NPP2). Kind of data set: inhibition; LPA production, 0.20 uM aptamer, ~92% serum, 37C 3 h.
B5 came in with an activity of 92 % inhibition.

Molecule B6 yielded an activity of 93 % inhibition.

In turn, CCTGGACGGAACCAGAATACTTTTGGTCTCCAGG (ssDNA, 2'-OMe C7,G9,A14,G15,A19,C20,A32,G33,G34; 5' C12 spacer; 3' idT) [12(55)] showed an activity of 91 % inhibition.

Regarding B7, the activity worked out at 92 % inhibition.

On to B8, for which the activity amounted to 91 % inhibition.

B9 came in with an activity of 93 % inhibition.

As for CCTGGACGGAACCAGAATACTTTTGGTCTCCAGG (ssDNA, 2'-OMe C7,G9,A14,G15,A19,C20,A32,G33,G34; 5' idT; 3' C12 spacer) [12(54)], the activity is 89 % inhibition.

In the next data set the target is T1, autotaxin (ENPP2/NPP2). Kind of data set: inhibition; LPA production, 0.025 uM aptamer, ~92% serum, 37C 3 h.
With B10, the activity was found to be 69 % inhibition.

B11 gave an activity of 44 % inhibition.

B12: the activity came out at 17 % inhibition.

B13 had an activity of 44 % inhibition.

In turn, B14 showed an activity of 70 % inhibition.

Consider B15, for which the activity is 29 % inhibition.

The molecule B16 returned an activity of 56 % inhibition.

Source of the values: US20170137818, “APTAMER INHIBITING BIOLOGICAL ACTIVITY OF AUTOTAXIN BY BINDING WITH AUTOTAXIN, AND USE THEREOF” (RIBOMIC INC., published 2017).
